The target of test [1] is T1, Recombinant human PD-1 (Sino Biological Inc., Catalog Number 10377-H08H) (human, UniProt Q15116 25-167).
T1 construct: Bought protein; also called antigen PD-1
In words: SPR (Biacore X100), antibody captured on anti-human IgG CM5 chip, PD-1 as analyte. Here is the method: The instrument utilizes an optical surface plasmon resonance technique to detect association and dissociation between a molecule coupled on a sensor chip and an analyte. CM5 chips (GE Healthcare, BR-1000-12) were used. […] In the association phase, the antigen PD-1 was diluted to multiple concentrations with a running buffer, and injected at a rate of 30 μL/min for 180 seconds. In the dissociation phase, the duration of the dissociation was 1200 seconds. Glycine solution (GE Healthcare, BR-1003-54) was used to regenerate for 30 seconds at a speed of 10 μL/min. […] Association rate constant and dissociation rate constant were analyzed and calculated by Biacore X100 evaluation software.
Background: SPR reads the build-up and loss of mass on a sensor chip optically.

For test [2], the target named is T2, Recombinant mouse PD-1 (Sino Biological Inc.) (mouse, UniProt Q02242 25-167).
T2 sequence (looked up): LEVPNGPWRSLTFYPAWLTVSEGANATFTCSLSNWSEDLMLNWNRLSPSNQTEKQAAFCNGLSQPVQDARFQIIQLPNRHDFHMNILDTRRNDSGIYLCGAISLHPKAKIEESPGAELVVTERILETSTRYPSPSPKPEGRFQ
In words: species specificity ELISA, coated recombinant mouse PD-1, anti-human IgG-HRP. How it is done:
(§1) Recombinant human PD-1, monkey PD-1, rat PD-1 and mouse PD-1 (all purchased from Sino Biological Inc.), were coated on a 96-well high-absorbing ELISA plate with a carbonate buffer solution with pH 9.6, the coating concentration was 1 μg/mL, the coating amount was 100 μL per well, and the coating was carried out at 4° C. overnight. The plate was washed five times with PBST and blocked with 300 μL/well of PBST containing 1% BSA, and then incubated at 25° C. for 1 hour. The plate was washed five times with PBST. […] The plate was washed five times with PBST. Then, horseradish peroxidase-labeled anti-human IgG antibody (Chemicon, Catalog Number AP309P) 1:2000 diluted in PBST containing 1% BSA was added, 100 μL per well, incubated at 25° C. for 1 hour. The plate was washed five times with PBST. 100 μL/well of colorimetric substrate TMB was added and incubated at room temperature for 10 minutes. Color development was terminated by adding 100 μL/well of 1 M H₂SO₄: The absorbance at 450 nm was read on a microplate reader.
In general terms: ELISA stands for enzyme-linked immunosorbent assay.

In test [3] the target is T3, Recombinant human BTLA (Sino Biological Inc.) (human, UniProt Q7Z6A9 31-157, limits assumed).
T3 sequence (looked up): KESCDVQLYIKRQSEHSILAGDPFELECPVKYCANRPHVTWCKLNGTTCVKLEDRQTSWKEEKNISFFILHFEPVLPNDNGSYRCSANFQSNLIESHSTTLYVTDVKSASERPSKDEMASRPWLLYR
In words: binding specificity ELISA, coated recombinant human BTLA, anti-human IgG-HRP. Here is the method: (§2) The plate was washed five times with PBST and blocked with 300 μL/well of PBST containing 1% BSA and incubated at 25° C. for 1 hour. The plate was washed five times with PBST. […] The plate was washed five times with PBST. Then, horseradish peroxidase-labeled anti-human IgG antibody (Chemicon, Catalog Number AP309P) 1:2000 diluted in PBST containing 1% BSA was added, 100 μL was added to each well, incubated at 25° C. for 1 hour. The plate was washed five times with PBST. 100 μL/well of colorimetric substrate TMB was added and incubated at room temperature for 10 minutes. Color development was terminated by adding 100 μL/well of 1 M H₂SO₄. The absorbance at 450 nm was read on a microplate reader.

Test [4] deals with T4, Recombinant human B7-H2 (Sino Biological Inc.) (human, UniProt O75144 19-256, limits assumed).
T4 sequence (looked up): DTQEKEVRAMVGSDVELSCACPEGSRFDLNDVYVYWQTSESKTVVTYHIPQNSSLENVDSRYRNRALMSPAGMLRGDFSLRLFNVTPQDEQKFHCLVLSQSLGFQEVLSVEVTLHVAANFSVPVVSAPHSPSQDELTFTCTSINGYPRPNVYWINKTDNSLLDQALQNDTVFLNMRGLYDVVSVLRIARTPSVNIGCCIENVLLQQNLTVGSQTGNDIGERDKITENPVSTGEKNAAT
In words: binding specificity ELISA, coated recombinant human B7-H2, anti-human IgG-HRP. How it is done:
as §2

For test [5], the target named is T5, Recombinant human CTLA4 (Sino Biological Inc.) (human, UniProt P16410 36-162).
T5 sequence (looked up): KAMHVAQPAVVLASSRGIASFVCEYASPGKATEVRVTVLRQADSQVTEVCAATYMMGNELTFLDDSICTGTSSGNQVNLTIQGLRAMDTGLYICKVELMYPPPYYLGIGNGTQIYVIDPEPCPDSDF
In words: binding specificity ELISA, coated recombinant human CTLA4, anti-human IgG-HRP. Here is the method:
as §2

Test [6] concerns the target T1, Recombinant human PD-1 (Sino Biological …). In words: ELISA, coated recombinant human PD-1 (1 ug/mL), detection with anti-human IgG-HRP, OD450nm. Here is the method:
as §1, with “human” for “human PD-1, monkey PD-1, rat”, “(purchased” for “and mouse PD-1 (all purchased”, “Inc.) was” for “Inc.), were”, “H₂SO₄.” for “H₂SO₄:”

The target is the same in test [7]. In words: species specificity ELISA, coated recombinant human PD-1 (1 ug/mL), anti-human IgG-HRP, OD450nm. How it is done:
as §1

For test [8], the target named is Recombinant monkey PD-1 (Sino Biological Inc.) (monkey). In words: species specificity ELISA, coated recombinant monkey PD-1 (1 ug/mL), anti-human IgG-HRP, OD450nm. Here is the method:
as §1

T1 sequence (Q15116 25-167 limits assumed): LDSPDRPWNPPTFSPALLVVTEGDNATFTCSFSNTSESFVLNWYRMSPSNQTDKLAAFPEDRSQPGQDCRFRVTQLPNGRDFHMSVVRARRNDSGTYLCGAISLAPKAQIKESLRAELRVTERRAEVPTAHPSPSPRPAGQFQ

B1: anti-human PD-1 chimeric monoclonal antibody (antibody, human IgG4 S228P, kappa, V domains shown)
VH: EVQLQESGGGLVKPGGSLKLSCAASGFTFSSYGMSWVRQTPEKRLEWVASISGGGRYTYYPDSMKGRFTISRDNAKNNLHLQMSSLRSEDTALYYCVYEYFYTMDYWGQGTSVTVSS
VL: DIVLTQSPATLSVTPGDSVSLSCRANQSISNNLHWYQQRSHESPRLLIRFASQSISGIPSRFSGSGSGTDFTLSINSVETEDFGMYFCQQSDNWPLTFGAGTKLEIKR
notes: expressed in 293F cells; also called Anti-human PD-1 Chimeric Antibody; chimeric anti-human PD-1 monoclonal antibody
As usually defined, the Kd is the concentration at which binding is half-saturated. By koff is commonly meant the first-order rate constant of dissociation. The kon is a measure of how fast the partners come together. What is called EC50 is the concentration giving half of the maximal effect. On to B1, for which, in test [1], the Kd was 1.37 nM. Moreover, the dissociation rate constant (koff) in test [1] stood at 0.000295 s⁻¹. The kon in test [1] was 215000 M⁻¹ s⁻¹. Also, the binding result is recorded as “no binding (tested: about 20 nM)” in test [2], “no binding” in test [3], “no binding” in test [4] and “no binding” in test [5]. In addition, the concentration giving a half-maximal response (EC50) was found to be 0.092 nM in test [6], 0.092 nM in test [7] and 0.1 nM in test [8].

Values taken from patent US20190367615A1 (BEIJING HANMI PHARM, published 2019).
